The target in the series is T1, recTZF-WT (GST-TEV-TTP TZF) (Mus musculus, UniProt P22893 93-165).
T1 sequence: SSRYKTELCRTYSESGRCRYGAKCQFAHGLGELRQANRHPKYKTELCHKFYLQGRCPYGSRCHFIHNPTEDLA
As to the kind of experiment: EMSA. (In general: In EMSA bound probe runs differently from free probe, usually more slowly.)

Experimental findings from article doi:10.1101/2023.11.30.569392 are described below.

B1: Tnf-ARE (ssRNA)
RNA: AUUAUUUAUUAUUUAUUUAUUAUUUA
For the molecule B1, the binding result is on record as “binds”.
